# From the supplement of paper PMC12636428
# System: Saccharomyces cerevisiae
# Test: transcriptional activation domain activity (GFP:mCherry ratio, weighted mean of sorted bins, harmonized to initial dataset scale) (arbitrary fluorescence ratio units); higher = stronger transcriptional activation
# Conditions: beta-estradiol 1 µM; induction time 4 h
# Summary of the method: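 Protein tiles carrying barcodes and fused to an estradiol-inducible synthetic transcription factor were placed at the URA3 locus of yeast diploids with a GFP reporter. Following 4 hours at 30 °C in SC with 1 uM beta-estradiol, cells were sorted into 8 GFP:mCherry bins, barcodes were sequenced, and tiles with fewer than 50 reads were discarded. Activation activity is given as the read-weighted mean of bin median fluorescence, averaged across barcodes and linearly mapped to the initial dataset scale.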
row,Sequence,transcriptional activation domain activity
1,KRKACLVCDLICTLLLQGLVSNEELRIDYSHRRCDLWRRQRWIGFVTPLSILE,36400
2,KRKDAAKKKSEREWKDRVKGVEKAGRDRQKRREENIRKRKEEKGRGKGKKGKG,6830
3,KRKDGNGGAGREMKRGERDASPAKGKGASAARGRGGRGRGGRRGGSRGGKKRG,32600
4,KRKPRRPVRVDKDPEEEEEEDKEEEEEEEEDPRGKEKKKAKPKRKAKAKAAED,21400
5,KRNKPNACGGCGAESDENGGALMMCSRCKDRKYCGAECQKTHWKVHKKVCEVA,58500
6,KRPRKKKQQKAAAEEAAEPAGSGDEAAAPPEPKKRRKGKLRKEGDKNGNAAPA,28500
7,KRPTSHTLRPFFYFLLAVIYTVAHALVMIYQMISLNVAVNSYDNALLTLLVSN,52200
8,KRQKSRKGSESDAESEGEGDRGGARAYGKSRPQGRSADARADRKSAKGARAPQ,34200
9,KRREKRKKRKQRDQGRKKTKKDGVGEPSNEGGEDDNGESGKDDDDQGKESDKD,29600
10,KRRGDQGKEQDRKGGEGGEEERGNGARGGGSARKEGDKGGEQKEGGRQRERAG,41700
11,KRRRWQLALLLLFWFAWLATFITVIHNSRFVSKVNGQDPYLLSCTSVLWSKNN,47100
12,KRSKSPDSRHSSSRKRSRSRERKHKSSRKRSKSREGKIKKSKSEKHRSHKHKR,46300
13,KRSRKHSSREDVGEEGEDRRSEHRERKKEKEREKDKEKDKDRSRSRHKRSRSD,53600
14,KRVKKEETVEKKPAVETEAPKKRGRKAAVSASAEEPKAAPAKRSRRKVSATAA,13300
15,KSDAAAQVPSRGQKRDRDGDEEGSDAEAGVPGTPIRSSRKTKKRGKKSKEPRE,50200
16,KSDVEADRQRLIYSGKVLKDDDILSSCKIQSGHTVHMVKGAARAAAASSSSAP,58300
17,KSEKPEKERKHRDKGEREHRDRSEREHKVREPKEPREKGEKEKRHKTAEEKAG,16900
18,KSGCGYILGHINIFQPINWILVTSSKVFPIDYILFLLLVMFFFSASIVGIATV,34400
19,KSGRGGGRKGGRGGGKASARGGAGGARGGGGGGRGGGGAHTERGRTGKGAGAS,21800
20,KSKAANAKGKKKGKKGKKNKKGKKGKKAKNAKKAKAVKVAKAPVAKAPAPAAK,17700
21,KSKKKRRMEEEEEGDEEEEEEQREREEERGERGEREARVRREGKAKKSASSRD,17300

row,Sequence,transcriptional activation domain activity
1,KSKKKRRSKRKPKNQKKKTTGKDAQEHLDDEQTRNLEDGQDDKKDEQDDDNKK,31400
2,KSKKRKTGEQSDEDAVAAKKRKKSAGKKVAGEEKPKKARKSQAPAEAAGGRKS,16500
3,KSKKRRRDDGSSDTADSDGNRGRSTGKKRQRSRRGSDDNDSEADARKRSRKRR,23600
4,KSKKRSRVDEEDEEEYGASSSKAKAKKDKEKPAKKAAAKGKEKAAKGKASAKG,26200
5,KSKKTEAEAEEEEVTEEVKPEKKEKKEKKEKKEKKRKRDAEEDAAETKPAEKA,17600
6,KSKQKERERKRARAKANEKAKAEARKRKTKDGEKKEKRKQKEREKAKGKGKER,55000
7,KSKSSRSSRRREGEEDDDRRRRRHRHRSRSHSRGRDGDNDDPKEKRRSRRHDD,38400
8,KSKSSRSSRRREGEEDDDRRRRRHRHRSRSRSRSRGRGGGSDDGSKEQRRSSR,40100
9,KSNDSSAEKDTRSMVFCETEKVSYTGANFGEDAARDVHCKYLVGVYSKSQKQL,37900
10,KSNGTEGAGAEGSKGGEGSTGEGSKGEGSSGEGAKGGEGSKGEGAGAEGSKGG,36300
11,KSPEKEATKDGDGKPEGTTGTGRGRGRGRGRGGGRGRGRGRGGAVAEKGSYKA,< 6570
12,KSPHMSAVESKPKEAKTVVEPKADKAAEVKKEEPKKEVVAAPEPVAAKPIAQI,35600
13,KSPVKRKPKAEGASADGSPKKRKSKGEAADADGTPKKRGRKPKKAEPQPEIQG,33700
14,KSRKRAKKSPEESEVESKHRRRRSRKAVEDENDENSHCKRTKKVAGAESEKAV,19700
15,KSSEAAPAEENKPSPEKNGKGKQGEDKGGNNGKENKGGDKGGGKGAQSKKGKK,31600
16,KSSKEKDTASVKRGSVESDDTPAAAAAATKGKQLSKDGDADDDSDESDEEKEQ,33700
17,KSTARDTSAEVSSTKKRARSKAKKGDSDVEEDSDRGRSKTAKKSRKSTGAKSS,12800
18,KSVLCDLVFTMFADLRDPSVSRRFATVDDLELWFSTTLIKALRHLVALFTEYY,50400
19,KSVLERILVRGAMGSERHMKHELKVFYAMRGKLSWFIKWVHVVLRWVFAKSVL,48000
20,KSVSRLHAKIEYDQEEDRFVLLVVGRNGAWVDGVWSASGTRACLGERSQIQIA,42000
21,KSVVLERKLAIGQCRHLFTVNDNWLVSVWNDFHVGIVVRNMVFFLCRLVFDFM,42700

row,Sequence,transcriptional activation domain activity
1,KSWGKSLVGLMGRLKRQPICVLVKTDEINHLLHMILYVRENEETSCIKIVHFC,37900
2,KSWYFPSLSFFFFSFLFSFLSFAFLSFFLFFSFPFSLLLLYLFLLGLALTADG,15600
3,KSYVAILGYIMYPPTTRLVIHIRVWADALRALSSQAMLKTYLLTRGYQFRSIV,58900
4,KTDKSKDRKTKKKKSHKATGSERPSSSRGEEPEKDEEPEKKEKRRKKRKEEKR,17900
5,KTGEDRGRGRGRGRGKRKGEGRGGEGKTGEEGEEEEEEKGERREREREREKKK,23400
6,KTHPQASAEADGEEDAEPEGQAKSRQPSRRRQSRGRGRRGGPQESDTESIARS,19300
7,KTIFFCGGRFLTSRALWAFCLSMFLFVMPSVLFLIFTCPWLWHHISPAVPIIF,41300
8,KTIGKQDPYCAARLGKEAKKTETDRRGGQTPRWDQELRFTVHDSPDYYQLKVS,55000
9,KTIWRDVKEGGECSVEEMCLSYYRSEGWKGYHSEGGILKTLFAYLFYDIMFLY,65700
10,KTKEGAAKNTKKSGERGKEKGLAGAKSKKSPINNSVKGKKSPSTKKTVKKAGK,31600
11,KTPAAANKAGGGGAGGKSAGGRGKTQRARGGRVKQATTQKQTATPKQQQTAAK,24000
12,KTQDESKPADGASTEQPAKKKRKRKQKRAQDGEGGEGAAAVGGGGGGEETQKA,33200
13,KTRGFQEGVSLTVYDELARWEKYAYGCNELIFHPMRYWPTRGPFTKLFIRFIF,41600
14,KTSNDLKYLFTFVEYHVFVSLIRRSLSQLDENKEKHEQMIKLYDDILKNIECI,24800
15,KTTGPDARISHTSVQRFASYLGLRVALDRLRLQLAAATTIRHFISRLSRVLVF,50600
16,KTVEEIWRISQGAVEGEEKGREREKAGLCVRACGASWHSQVLCAALVEVVGLS,41700
17,KVAAGANGETDGEAKTKKKSSKRVSRRRQPGEEDDEEEAEGAGEGAEKAKKNK,20300
18,KVAEPGSKVSLRAPVDPNAPAPKPKKGKDGKEIKEEPKMIEKVVDSIYLHVQT,41000
19,KVAYRNPAADSEGWRRWGNDEARHGTLGVEEMERRIEALRKAKVGGGMVKVGF,35500
